Measurements taken from US20040170644A1.
No end group written: not given here.

T1: HLA-DR7 molecule (DRB1*0701) (human)
T1 chain 1: not shown
T1 chain 2: not shown

T2: HLA-DRB4*0101 molecule (human)
T2 chain 1: not shown
T2 chain 2: not shown

T3: HLA-DR3 molecule (DRB1*0301) (human)
T3 chain 1: not shown
T3 chain 2: not shown

T4: HLA-DR13 molecule (DRB1*1301) (human)
T4 chain 1: not shown
T4 chain 2: not shown

T5: HLA-DR15 molecule (DRB1*1501) (human)
T5 chain 1: not shown
T5 chain 2: not shown

T6: HLA-DR1 molecule (DRB1*0101) (human)
T6 chain 1: not shown
T6 chain 2: not shown

T7: HLA-DR11 molecule (DRB1*1101) (human)
T7 chain 1: not shown
T7 chain 2: not shown

T8: HLA-DR4 molecule (DRB1*0401) (human)
T8 chain 1: not shown
T8 chain 2: not shown

T9: HLA-DRB5*0101 molecule (human)
T9 chain 1: not shown
T9 chain 2: not shown

T10: HLA-DRB3*0101 molecule (human)
T10 chain 1: not shown
T10 chain 2: not shown

B1: E6(121-140) (peptide)
peptide: EKQRHLDKKQRFHNIRGRWT
modifications: not checked
B2: E6 130-144 (peptide)
peptide: QRFHNIRGRWTGRCM
modifications: not checked
B3: E6(14-34) (peptide)
peptide: ERPRKLPQLCTELQTTIHDII
modifications: not checked
B4: E6 93-107 (peptide)
peptide: TTLEQQYNKPLCDLL
modifications: not checked
B5: E6(45-67) (peptide)
peptide: LRREVYDFAFRDLCIVYRDGNPY
modifications: not checked
B6: E7 77-91 (peptide)
peptide: RTLEDLLMGTLGIVC
modifications: not checked
B7: E7 65-79 (peptide)
peptide: LRLCVQSTHVDIRTL
modifications: not checked
B8: E6 84-98 (peptide)
peptide: RHYCYSLYGTTLEQQ
modifications: not checked
B9: E7 84-98 (peptide)
peptide: MGTLGIVCPICSQKP
modifications: not checked
B10: E6 24-38 (peptide)
peptide: TELQTTIHDIILECV
modifications: not checked
B11: E7(60-74) (peptide)
peptide: KCDSTLRLCVQSTHV
modifications: not checked
B12: E7(65-87) (peptide)
peptide: LRLCVQSTHVDIRTLEDLLMGTL
modifications: not checked
B13: E6 89-103 (peptide)
peptide: SLYGTTLEQQYNKPL
modifications: not checked
B14: E7 67-81 (peptide)
peptide: LCVQSTHVDIRTLED
modifications: not checked
B15: E7(1-20) (peptide)
peptide: MHGDTPTLHEYMLDLQPETT
modifications: not checked
B16: E7(7-27) (peptide)
peptide: TLHEYMLDLQPETTDLYCYEQ
modifications: not checked
B17: E6 42-56 (peptide)
peptide: QQLLRREVYDFAFRD
modifications: not checked
B18: E7 6-20 (peptide)
peptide: PTLHEYMLDLQPETT
modifications: not checked
B19: E6 97-111 (peptide)
peptide: QQYNKPLCDLLIRCI
modifications: not checked
B20: E7 13-27 (peptide)
peptide: LDLQPETTDLYCYEQ
modifications: not checked
B21: E6(1-22) (peptide)
peptide: MHQKRTAMFQDPQERPRKLPQL
modifications: not checked
B22: E7(21-40) (peptide)
peptide: DLYCYEQLNDSSEEEDEIDG
modifications: not checked
B23: B1 21-36 (nonbiotinylated) (peptide)
peptide: TERVRLVTRHIYNREE
modifications: not fully specified
B24: E6(105-126) (peptide)
peptide: DLLIRCINCQKPLCPEEKQRHL
modifications: not checked
B25: E6 76-90 (peptide)
peptide: FYSKISEYRHYCYSL
modifications: not checked
B26: E6 55-69 (peptide)
peptide: RDLCIVYRDGNPYAV
modifications: not checked
B27: E6 81-95 (peptide)
peptide: SEYRHYCYSLYGTTL
modifications: not checked
B28: E6 124-138 (peptide)
peptide: HLDKKQRFHNIRGR
modifications: not checked

Biological target: T1, HLA-DR7 molecule (DRB1*0701) (human)
Test: competition ELISA vs biotin-YKL

Row | Binder | IC50
1 | B1 | 200 nM
2 | B2 | 950 nM
3 | B3 | 225 nM
4 | B4 | 7750 nM
5 | B5 | 2330 nM
6 | B6 | 55 nM
7 | B7 | 600 nM
8 | B8 | 3250 nM
9 | B9 | 1250 nM
10 | B10 | 1500 nM
11 | B11 | 900 nM
12 | B12 | 900 nM
13 | B13 | 1500 nM
14 | B14 | 1500 nM

Biological target: T2, HLA-DRB4*0101 molecule (human)
Test: competition ELISA vs biotin-E2/E168

Row | Binder | IC50
15 | B15 | 4 nM
16 | B16 | 375 nM
17 | B17 | 55 nM
18 | B9 | 1750 nM
19 | B18 | 200 nM

Biological target: T3, HLA-DR3 molecule (DRB1*0301) (human)
Test: competition ELISA vs biotin-MT 2-16

Row | Binder | IC50
20 | B16 | 560 nM
21 | B3 | 550 nM
22 | B19 | 1230 nM
23 | B20 | 3500 nM
24 | B21 | 3500 nM
25 | B22 | 4600 nM
26 | B12 | 450 nM

Biological target: T4, HLA-DR13 molecule (DRB1*1301) (human)
Test: competition ELISA vs biotin-B1 21-36

Row | Binder | IC50
27 | B1 | 1130 nM
28 | B23 | 330 nM
29 | B16 | 7500 nM
30 | B24 | 5000 nM
31 | B17 | 375 nM
32 | B25 | 225 nM

Biological target: T5, HLA-DR15 molecule (DRB1*1501) (human)
Test: competition ELISA vs biotin-A3 152-166

Row | Binder | IC50
33 | B15 | 125 nM
34 | B16 | 1770 nM
35 | B3 | 800 nM
36 | B4 | 18 nM
37 | B19 | 4000 nM
38 | B26 | 55 nM
39 | B24 | 4000 nM
40 | B5 | 225 nM
41 | B17 | 3250 nM
42 | B22 | 5300 nM
43 | B9 | 425 nM
44 | B10 | 950 nM
45 | B18 | 675 nM
46 | B12 | 470 nM
47 | B13 | 53 nM
48 | B14 | 950 nM

Biological target: T6, HLA-DR1 molecule (DRB1*0101) (human)
Test: competition ELISA vs biotin-HA 306-318

Row | Binder | IC50
49 | B15 | 2500 nM
50 | B1 | 125 nM
51 | B2 | 4 nM
52 | B27 | 10 nM
53 | B3 | 3500 nM
54 | B19 | 575 nM
55 | B20 | 4000 nM
56 | B26 | 1500 nM
57 | B24 | 1750 nM
58 | B7 | 750 nM
59 | B10 | 425 nM
60 | B18 | 750 nM
61 | B25 | 125 nM
62 | B28 | 10 nM
63 | B11 | 5000 nM
64 | B12 | 650 nM
65 | B13 | 125 nM
66 | B14 | 7000 nM

Biological target: T7, HLA-DR11 molecule (DRB1*1101) (human)
Test: competition ELISA vs biotin-HA 306-318

Row | Binder | IC50
67 | B15 | 1750 nM
68 | B1 | 350 nM
69 | B2 | 115 nM
70 | B16 | 600 nM
71 | B27 | 725 nM
72 | B20 | 3500 nM
73 | B26 | 250 nM
74 | B24 | 5000 nM
75 | B5 | 125 nM
76 | B17 | 6000 nM
77 | B8 | 7000 nM
78 | B18 | 1500 nM
79 | B28 | 475 nM
80 | B11 | 7000 nM

Biological target: T8, HLA-DR4 molecule (DRB1*0401) (human)
Test: competition ELISA vs biotin-HA 306-318

Row | Binder | IC50
81 | B16 | 60 nM
82 | B19 | 325 nM
83 | B20 | 4250 nM
84 | B24 | 3750 nM
85 | B22 | 1750 nM
86 | B18 | 175 nM
87 | B12 | 650 nM
88 | B13 | 5000 nM
89 | B14 | 7500 nM

Biological target: T9, HLA-DRB5*0101 molecule (human)
Test: competition ELISA vs biotin-HA 306-318

Row | Binder | IC50
90 | B1 | 85 nM
91 | B2 | 75 nM
92 | B27 | 2500 nM
93 | B4 | 325 nM
94 | B19 | 5500 nM
95 | B24 | 30 nM
96 | B5 | 65 nM
97 | B6 | 700 nM
98 | B8 | 900 nM
99 | B9 | 90 nM
100 | B25 | 1050 nM
101 | B28 | 75 nM
102 | B11 | 200 nM
103 | B13 | 200 nM

Biological target: T10, HLA-DRB3*0101 molecule (human)
Test: competition ELISA vs biotin-Lol 191-210

Row | Binder | IC50
104 | B15 | 35 nM
105 | B16 | 8.5 nM
106 | B3 | 1450 nM
107 | B5 | 2500 nM
108 | B18 | 90 nM
109 | B12 | 850 nM
